From US20020164690A1 come the findings set out here.

For assay [1], the target named is human IL-13 (human) (UniProt P35225). Briefly: cell-based or functional assay.
Assay [2] addresses CNTFRα on PC12D cells (UniProt Q08406). Put plainly: Scatchard analysis of 125I-CNTF saturation binding on PC12D cells, two-site fit; low affinity site, said to correspond to CNTF with CNTFRα.
Assay [3] addresses CNTFRα:β1 (CNTFRα and gp130) on PC12D cells (UniProt Q08406). Put plainly: Scatchard analysis of 125I-CNTF saturation binding on PC12D cells, two-site fit; high affinity site, interpreted as the intermediate of CNTF, CNTFRα and gp130.
In assay [4] the target is CNTF receptor on EW-1 cells (CNTFRα, gp130 and LIFRβ) (UniProt P26992). Put plainly: Scatchard analysis on EW-1 cells, two-site fit; site not assigned in words.
Assay [5] has as its target human IL-4 (human) (UniProt P05112). Briefly: cell-based or functional assay.
Assay [6] addresses recombinant human IL-1 (human). Put plainly: cell-based or functional assay.

Chain of human IL-13 (human) (P35225 35-146 limits assumed): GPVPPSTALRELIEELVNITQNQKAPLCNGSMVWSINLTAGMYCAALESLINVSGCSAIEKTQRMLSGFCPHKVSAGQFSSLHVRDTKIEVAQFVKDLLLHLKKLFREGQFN
Chain of human IL-4 (human) (P05112 25-153 limits assumed): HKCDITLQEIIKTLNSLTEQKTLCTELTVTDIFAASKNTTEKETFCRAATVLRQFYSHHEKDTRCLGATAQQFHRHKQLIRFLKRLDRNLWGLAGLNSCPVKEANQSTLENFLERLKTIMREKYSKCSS
Chain of IL-1-RI.Fc (P14778 18-336): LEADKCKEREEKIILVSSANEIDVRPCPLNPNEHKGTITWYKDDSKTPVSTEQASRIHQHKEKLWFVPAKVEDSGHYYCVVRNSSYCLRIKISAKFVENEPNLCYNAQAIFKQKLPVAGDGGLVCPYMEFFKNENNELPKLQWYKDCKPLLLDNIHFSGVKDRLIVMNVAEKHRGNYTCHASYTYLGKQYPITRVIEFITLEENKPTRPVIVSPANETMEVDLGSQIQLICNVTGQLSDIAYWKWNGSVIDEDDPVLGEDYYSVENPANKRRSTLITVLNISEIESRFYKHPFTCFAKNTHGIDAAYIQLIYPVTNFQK
Chain of CNTFRα on PC12D cells (Q08406 23-342 limits assumed): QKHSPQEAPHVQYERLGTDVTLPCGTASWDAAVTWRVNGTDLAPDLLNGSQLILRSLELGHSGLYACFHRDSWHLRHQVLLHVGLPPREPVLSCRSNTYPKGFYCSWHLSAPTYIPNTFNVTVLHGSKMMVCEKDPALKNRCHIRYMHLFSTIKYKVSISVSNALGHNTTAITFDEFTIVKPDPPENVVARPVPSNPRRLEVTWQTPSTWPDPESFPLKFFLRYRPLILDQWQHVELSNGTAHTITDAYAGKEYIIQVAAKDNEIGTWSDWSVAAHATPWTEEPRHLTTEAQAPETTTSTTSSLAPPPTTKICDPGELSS
Chain of CNTFRα:β1 (CNTFRα and gp130) on PC12D cells (Q08406 23-342 limits assumed, chain 1 of 2): as the sequence (Q08406 23-342 limits assumed) above
Chain of CNTFRα:β1 (CNTFRα and gp130) on PC12D cells (P40190 23-918 limits assumed, chain 2 of 2, further chain): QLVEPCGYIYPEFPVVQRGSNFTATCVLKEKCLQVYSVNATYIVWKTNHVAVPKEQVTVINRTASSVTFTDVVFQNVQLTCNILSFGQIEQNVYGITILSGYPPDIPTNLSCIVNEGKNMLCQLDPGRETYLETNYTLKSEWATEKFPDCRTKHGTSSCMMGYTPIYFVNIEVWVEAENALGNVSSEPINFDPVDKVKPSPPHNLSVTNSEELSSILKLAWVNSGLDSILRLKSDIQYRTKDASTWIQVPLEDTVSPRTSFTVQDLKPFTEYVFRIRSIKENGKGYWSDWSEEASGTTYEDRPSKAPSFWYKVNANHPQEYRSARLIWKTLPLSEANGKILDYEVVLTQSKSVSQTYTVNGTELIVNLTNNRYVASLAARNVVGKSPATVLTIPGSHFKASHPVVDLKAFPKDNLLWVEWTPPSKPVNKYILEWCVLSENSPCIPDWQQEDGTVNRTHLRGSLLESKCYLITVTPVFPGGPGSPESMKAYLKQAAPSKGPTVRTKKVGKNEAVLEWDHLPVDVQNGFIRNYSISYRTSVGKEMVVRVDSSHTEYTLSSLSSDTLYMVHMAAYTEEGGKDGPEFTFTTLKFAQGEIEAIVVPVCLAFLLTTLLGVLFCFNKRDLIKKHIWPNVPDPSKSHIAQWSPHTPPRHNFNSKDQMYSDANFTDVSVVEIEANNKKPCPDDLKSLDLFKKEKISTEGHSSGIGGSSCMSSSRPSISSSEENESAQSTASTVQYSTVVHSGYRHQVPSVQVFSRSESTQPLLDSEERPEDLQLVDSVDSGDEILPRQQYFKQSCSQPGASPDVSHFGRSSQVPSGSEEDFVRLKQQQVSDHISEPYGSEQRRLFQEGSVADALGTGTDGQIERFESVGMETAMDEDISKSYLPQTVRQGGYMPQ
Chain of CNTF receptor on EW-1 cells (CNTFRα, gp130 and LIFRβ) (P26992 23-342 limits assumed, chain 1 of 3): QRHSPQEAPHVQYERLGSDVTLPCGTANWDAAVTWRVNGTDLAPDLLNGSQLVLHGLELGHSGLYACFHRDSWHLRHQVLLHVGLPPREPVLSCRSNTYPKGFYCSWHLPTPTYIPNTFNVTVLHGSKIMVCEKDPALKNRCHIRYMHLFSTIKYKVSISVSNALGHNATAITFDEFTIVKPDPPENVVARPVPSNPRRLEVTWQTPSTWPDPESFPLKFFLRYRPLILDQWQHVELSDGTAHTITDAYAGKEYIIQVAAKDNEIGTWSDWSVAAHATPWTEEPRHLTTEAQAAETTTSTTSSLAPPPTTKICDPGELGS
Chain of CNTF receptor on EW-1 cells (CNTFRα, gp130 and LIFRβ) (P40189 23-918 limits assumed, chain 2 of 3, further chain): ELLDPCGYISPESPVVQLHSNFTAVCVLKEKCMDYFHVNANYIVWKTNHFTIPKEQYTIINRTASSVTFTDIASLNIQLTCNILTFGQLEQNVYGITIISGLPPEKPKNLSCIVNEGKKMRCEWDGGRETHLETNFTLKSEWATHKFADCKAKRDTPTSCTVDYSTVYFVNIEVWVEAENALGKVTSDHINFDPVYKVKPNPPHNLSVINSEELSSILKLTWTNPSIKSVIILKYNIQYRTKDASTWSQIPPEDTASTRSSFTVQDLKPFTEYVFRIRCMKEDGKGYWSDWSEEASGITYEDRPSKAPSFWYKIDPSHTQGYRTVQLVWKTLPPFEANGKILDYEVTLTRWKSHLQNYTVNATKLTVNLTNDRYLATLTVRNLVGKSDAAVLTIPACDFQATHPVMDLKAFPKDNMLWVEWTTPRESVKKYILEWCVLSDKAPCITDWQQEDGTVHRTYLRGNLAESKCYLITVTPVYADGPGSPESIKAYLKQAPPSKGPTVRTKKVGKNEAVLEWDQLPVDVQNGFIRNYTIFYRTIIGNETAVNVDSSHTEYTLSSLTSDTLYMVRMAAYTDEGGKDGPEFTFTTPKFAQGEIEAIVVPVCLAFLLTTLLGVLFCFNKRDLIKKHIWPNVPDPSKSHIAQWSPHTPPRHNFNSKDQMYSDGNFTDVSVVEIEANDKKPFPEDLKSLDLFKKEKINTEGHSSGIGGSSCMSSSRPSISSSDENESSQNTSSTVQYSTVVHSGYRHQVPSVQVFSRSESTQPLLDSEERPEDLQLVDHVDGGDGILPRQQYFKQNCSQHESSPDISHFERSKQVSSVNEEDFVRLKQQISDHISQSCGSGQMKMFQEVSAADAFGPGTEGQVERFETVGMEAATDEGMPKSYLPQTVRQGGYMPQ
Chain of CNTF receptor on EW-1 cells (CNTFRα, gp130 and LIFRβ) (P42702 45-1097 limits assumed, chain 3 of 3, further chain): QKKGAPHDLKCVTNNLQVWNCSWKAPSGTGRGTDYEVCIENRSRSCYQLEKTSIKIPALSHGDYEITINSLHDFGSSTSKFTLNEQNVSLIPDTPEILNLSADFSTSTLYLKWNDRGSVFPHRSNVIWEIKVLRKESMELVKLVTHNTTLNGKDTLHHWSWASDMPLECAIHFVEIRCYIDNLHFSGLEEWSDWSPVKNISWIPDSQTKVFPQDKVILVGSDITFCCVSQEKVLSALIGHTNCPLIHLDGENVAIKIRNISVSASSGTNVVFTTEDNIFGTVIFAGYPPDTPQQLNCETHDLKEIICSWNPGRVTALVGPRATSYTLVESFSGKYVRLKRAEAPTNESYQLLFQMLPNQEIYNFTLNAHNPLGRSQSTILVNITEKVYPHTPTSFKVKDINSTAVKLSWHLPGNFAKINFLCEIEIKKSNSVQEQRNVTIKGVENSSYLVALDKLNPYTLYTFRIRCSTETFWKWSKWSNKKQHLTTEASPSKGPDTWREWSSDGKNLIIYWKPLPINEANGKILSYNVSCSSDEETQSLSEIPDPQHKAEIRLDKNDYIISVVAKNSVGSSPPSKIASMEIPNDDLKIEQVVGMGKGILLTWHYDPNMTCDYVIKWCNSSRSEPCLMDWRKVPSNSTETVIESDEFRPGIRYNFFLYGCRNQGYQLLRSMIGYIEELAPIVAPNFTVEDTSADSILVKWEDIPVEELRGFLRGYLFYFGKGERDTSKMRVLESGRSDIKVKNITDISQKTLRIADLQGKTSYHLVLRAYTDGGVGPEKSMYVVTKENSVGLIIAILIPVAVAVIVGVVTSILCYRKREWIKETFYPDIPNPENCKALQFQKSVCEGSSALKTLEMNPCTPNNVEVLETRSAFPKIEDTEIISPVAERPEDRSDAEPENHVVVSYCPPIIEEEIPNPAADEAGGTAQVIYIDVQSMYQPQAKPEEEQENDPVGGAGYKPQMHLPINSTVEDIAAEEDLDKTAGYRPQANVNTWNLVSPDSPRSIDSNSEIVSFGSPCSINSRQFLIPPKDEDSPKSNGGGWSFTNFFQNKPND

In assay [1], “IL-4Rα.IL-13Rα1.Fc (from UniProt P24394 26-232; P78552 22-343) (Fc fusion)” registered a TF1 bioassay: IL-13 concentration at which growth is inhibited by 50% (10 nM trap) of 4 to 5 nM and a TF1 bioassay: IL-13 concentration up to which 10 nM trap blocks growth of 2 nM.

With 125I-CNTF (ligand), the Kd in assay [2] came out at 3.4 nM; in assay [3], 0.009 nM; in assay [4], 1 nM.

In the case of “IL-13Rα1.IL-4Rα.Fc (from UniProt P78552 22-343; P24394 26-232) (Fc fusion)”, in assay [5], the TF1 bioassay: IL-4 concentration at which growth is inhibited by 50% (10 nM trap) lay within 3 to 4 nM and the TF1 bioassay: IL-4 concentration up to which 10 nM trap blocks growth turned out to be 1 nM. In assay [1], the TF1 bioassay: IL-13 concentration at which growth is inhibited by 50% (10 nM trap) fell in the range of 4 to 5 nM and the TF1 bioassay: IL-13 concentration up to which 10 nM trap blocks growth came to 2 nM.

For the substance “IL-1-RI.Fc (from UniProt P14778 18-336) (Fc fusion)”, in assay [6], the IL-1-dependent production of IL-6 by MRC5 cells: IL-1 concentration blocked was 10 to 20 pM.

“IL-4/IL-13 Trap 1132 (from UniProt P24394 26-232; P78552 27-343) (Fc fusion)”: the TF1 bioassay: activity against IL-4/IL-13 Trap 943 (fold (against Trap 943)) in assay [1] was 2 to 3.

By Kd is commonly meant the free concentration of one partner at which half of the binding sites on the other are occupied at equilibrium, for simple one-to-one binding.
